B1: melanotransferrin p97(668-683) (peptide)
peptide: GQDLLFKDATVRAVPV
notes: Eluted from HLA-DR of dendritic cells; also called 13

Target: HLA-DR4 (DRB1*0401) (human)
Test: in vitro peptide competition assay, purified HLA-DR, biotinylated HA(307-319) reporter

Binder | binding result
B1 | binds
TLQSFRQDVDNASLAR (Eluted from HLA-DR of dendritic cells) [vimentin(202-217)] | binds
DKARVEVERDNLAEDIM (Eluted from HLA-DR of dendritic cells) [vimentin(167-183)] | binds
